{"source": "patent WO2021160116A1", "target": "human FcRn mut (L320A, L321A) co-transfected with human β2M, stably overexpressed on HEK293 cells (human) (UniProt P55899)", "sequence (P55899 24-365 L343A/L344A, chain 1 of 2)": "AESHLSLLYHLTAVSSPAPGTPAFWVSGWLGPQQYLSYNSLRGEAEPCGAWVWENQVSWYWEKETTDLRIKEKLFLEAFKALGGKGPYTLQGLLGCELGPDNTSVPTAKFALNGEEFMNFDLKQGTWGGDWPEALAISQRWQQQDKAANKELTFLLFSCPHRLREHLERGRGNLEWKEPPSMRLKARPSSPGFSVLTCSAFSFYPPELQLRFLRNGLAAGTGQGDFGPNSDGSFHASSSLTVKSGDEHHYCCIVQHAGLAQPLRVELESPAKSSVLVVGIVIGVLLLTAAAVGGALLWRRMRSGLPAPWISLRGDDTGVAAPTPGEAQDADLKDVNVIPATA", "sequence (P61769 21-119, chain 2 of 2, further chain)": "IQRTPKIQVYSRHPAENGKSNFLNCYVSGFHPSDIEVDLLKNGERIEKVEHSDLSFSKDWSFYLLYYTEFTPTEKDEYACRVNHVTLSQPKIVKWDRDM", "assay": "flow cytometry competition, Argx-113 against biotin-hIgG (100 μg/mL) on HEK293 cells overexpressing human FcRn mut, pH 6.0", "note": "pIC50: −log10 of the molar value.", "data": [{"substance": "Argx-113", "values": [{"measurement": "pIC50", "value": 8.01}]}]}
